# Read-outs that look alike come from different tables or passages of the source.
# Tests used:
# [1] = biological target: Helicobacter pylori ferric uptake regulator, wildtype (HpFurWT) (H. pylori) (UniProt O25671); assay: cross-linking
# [2] = biological target: T1, HpFurE5A (Helicobacter pylori, UniProt O25671 1-150, E5A); assay: competition
# T1 sequence: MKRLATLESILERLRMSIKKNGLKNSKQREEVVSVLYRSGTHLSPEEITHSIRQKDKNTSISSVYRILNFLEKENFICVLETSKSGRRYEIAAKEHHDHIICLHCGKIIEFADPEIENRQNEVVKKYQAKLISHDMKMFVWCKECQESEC
# [3] = biological target: T2, HpFurA92T (Helicobacter pylori, UniProt O25671 1-150, A92T); assay: competition
# T2 sequence: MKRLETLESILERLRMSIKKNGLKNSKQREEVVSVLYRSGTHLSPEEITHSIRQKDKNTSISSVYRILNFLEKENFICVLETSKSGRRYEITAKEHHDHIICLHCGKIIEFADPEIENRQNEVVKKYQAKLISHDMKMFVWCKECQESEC
# [4] = biological target: T3, HpFurH134Y (Helicobacter pylori, UniProt O25671 1-150, H134Y); assay: fluorescence anisotropy
# T3 sequence: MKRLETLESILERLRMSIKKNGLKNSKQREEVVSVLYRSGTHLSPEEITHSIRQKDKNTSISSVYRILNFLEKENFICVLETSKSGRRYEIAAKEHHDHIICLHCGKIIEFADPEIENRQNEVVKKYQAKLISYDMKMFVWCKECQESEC
# [5] = biological target: T2, HpFurA92T; assay: fluorescence anisotropy
# [6] = biological target: T4, HpFurWT (Helicobacter pylori, UniProt O25671 1-150); assay: fluorescence anisotropy
# T4 sequence: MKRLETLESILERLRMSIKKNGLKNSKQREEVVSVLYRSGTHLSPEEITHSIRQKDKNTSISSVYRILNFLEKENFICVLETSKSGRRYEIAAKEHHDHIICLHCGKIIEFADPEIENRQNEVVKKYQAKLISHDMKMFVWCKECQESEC
# [7] = biological target: T3, HpFurH134Y; assay: fluorescence anisotropy; remark: listed apart in the source
# [8] = biological target: T2, HpFurA92T; assay: fluorescence anisotropy; remark: listed apart in the source
# [9] = biological target: T4, HpFurWT; assay: fluorescence anisotropy; remark: listed apart in the source
# [10] = biological target: T1, HpFurE5A; assay: fluorescence anisotropy
molecule,measurement,setting,value
"Helicobacter pylori ferric uptake regulator, wildtype (HpFurWT) (from UniProt O25671 1-150) (natural protein)",stoichiometry N,[1],2
amiE Fur box scrambled (GT repeats) (dsDNA) DNA 1: TGCCCCGTGTGTGTGTGTGTATTAA DNA 2: TTAATACACACACACACACGGGGCA,binding result,[2],no binding
pfr scrambled (GT repeats) (dsDNA) DNA 1: TTCATTAGTGTGTATGCTAT DNA 2: ATAGCATACACACTAATGAA,binding result,[3],no binding
pfr apo-Fur binding site duplex (dsDNA) DNA 1: TTCATTATCATTTATGCTAT DNA 2: ATAGCATAAATGATAATGAA,Kd,[4],8 ± 1 nM
same,Kd,[5],13 ± 1 nM
same,Kd,[6],43 ± 2 nM
amiE Fur box duplex (dsDNA) DNA 1: TGCCCCAATAATCATAATGATTAA DNA 2: TTAATCATTATGATTATTGGGGCA,Kd,[7],6 ± 1 nM
same,Kd,[8],15 ± 2 nM
same,Kd,[9],16 ± 2 nM
same,Kd,[10],2 ± 1 nM
